Experimental data taken from patent US20170029474A1.
Where two headings read alike, the source gives them in different places.

Assays:
Recombinant HB-EGF [1] = target: Recombinant HB-EGF (UniProt Q99075); assay: cell-based or functional assay
[2] = target: C-terminal His-tagged HB-EGF lacking the heparin-binding domain (UniProt Q99075); assay: SPR, Biacore T200, His-tagged HB-EGF captured on NTA chip
Recombinant HB-EGF [3] = target: Recombinant HB-EGF (UniProt Q99075); assay: cell-based or functional assay; remark: listed apart in the source

Chain of Recombinant HB-EGF (Q99075 63-148 limits assumed): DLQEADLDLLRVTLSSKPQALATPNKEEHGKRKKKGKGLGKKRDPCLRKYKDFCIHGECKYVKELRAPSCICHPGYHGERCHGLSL
Chain of C-terminal His-tagged HB-EGF lacking the heparin-binding domain (Q99075 other isoform, or with tags, fused parts or gaps limits assumed): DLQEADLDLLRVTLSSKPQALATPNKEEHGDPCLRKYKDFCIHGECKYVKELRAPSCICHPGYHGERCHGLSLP

Substance	ID50 [nM], HB-EGF-dependent growth of DER cells (Recombinant HB-EGF [1]) [nM]	DER cell assay ID50 (Recombinant HB-EGF [1]) [nM]	Relative values (KA, against CRM197) (relative to CRM197) [2]	DER cell assay ID50 (Recombinant HB-EGF [3]) [nM]	DER cell assay Relative values (relative to CRM197) (Recombinant HB-EGF [3])
MBP-R (D507N) (from UniProt P00587 405-560)	4.5	–	–	–	–
CRM197 (from UniProt P00587 26-560)	1.2	1.2	1	1.02	1
MBP-R (V468T) (from UniProt P00587 405-560)	6.2	–	–	–	–
MBP-R (H520K) (from UniProt P00587 405-560)	6	–	–	–	–
